Values quoted from earlier work in patent US12576131B2, “Altering inflammatory states of immune cells in vivo by modulating cellular activation states” (Fred Hutchinson Cancer Center, priority 2018, dated 2026).

Tested on: IRF8 responsive genes
Conditions: mutation of the K310 residue prevents SUMO binding

B1: murine IRF8 mutant: murine IRF8 with substitution of Lysine (K) at residue 310 with Arginine (R), SEQ ID NO: 17 (protein)
chain: MCDRNGGRRLRQWLIEQIDSSMYPGLIWENDEKTMFRIPWKHAGKQDYNQEVDASIFKAWAVFKGKFKEGDKAEPATWKTRLRCALNKSPDFEEVTDRSQLDISEPYKVYRIVPEEEQKCKLGVAPAGCMSEVPEMECGRSEIEELIKEPSVDEYMGMTKRSPSPPEACRSQILPDWWVQQPSAGLPLVTGYAAYDTHHSAFSQMVISFYYGGKLVGQATTTCLEGCRLSLSQPGLPKLYGPDGLEPVCFPTADTIPSERQRQVTRKLFGHLERGVLLHSNRKGVFVKRLCQGRVFCSGNAVVCKGRPNRLERDEVVQVFDTNQFIRELQQFYATQSRLPDSRVVLCFGEEFPDTVPLRSKLILVQVEQLYARQLVEEAGKSCGAGSLMPALEEPQPDQAFRMFPDICTSHQRPFFRENQQITV
- increase in IRF8 specific gene transcription: 2-5 fold
